Data set [1] deals with T1, dCas12j-8 D523R D523R;D369A;E567A;D658A (bacteriophage (metagenome)).
T1 sequence: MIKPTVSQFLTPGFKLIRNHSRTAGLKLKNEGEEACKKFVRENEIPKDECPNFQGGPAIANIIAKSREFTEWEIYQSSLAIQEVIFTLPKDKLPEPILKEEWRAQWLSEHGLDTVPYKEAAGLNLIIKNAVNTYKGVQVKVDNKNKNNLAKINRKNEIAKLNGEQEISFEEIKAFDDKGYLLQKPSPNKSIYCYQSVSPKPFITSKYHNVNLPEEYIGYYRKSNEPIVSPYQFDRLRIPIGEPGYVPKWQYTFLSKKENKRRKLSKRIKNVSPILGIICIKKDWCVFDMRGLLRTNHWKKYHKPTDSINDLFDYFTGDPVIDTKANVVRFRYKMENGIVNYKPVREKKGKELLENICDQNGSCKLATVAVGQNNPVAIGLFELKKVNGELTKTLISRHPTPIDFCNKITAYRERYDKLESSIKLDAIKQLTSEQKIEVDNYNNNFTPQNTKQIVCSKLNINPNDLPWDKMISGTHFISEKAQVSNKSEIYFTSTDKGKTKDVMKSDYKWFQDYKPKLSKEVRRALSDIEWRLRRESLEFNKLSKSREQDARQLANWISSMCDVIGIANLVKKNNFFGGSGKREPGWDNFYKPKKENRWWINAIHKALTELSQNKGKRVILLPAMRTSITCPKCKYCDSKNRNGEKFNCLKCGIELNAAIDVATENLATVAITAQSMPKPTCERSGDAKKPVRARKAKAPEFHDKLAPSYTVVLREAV
The following applies: HEK293T cells; panel 1c (compare within a panel only); scale: mean GFP / mean GFP of wild type, printed, no background subtraction.

Data set [2] deals with T2, dCas12j-8 E258R+D313R E258R;D313R;D369A;E567A;D658A (bacteriophage (metagenome)).
T2 sequence: T1 sequence with E258R, D313R, R523D
The conditions noted are these: HEK293T cells; panel 1d (compare within a panel only); scale: mean GFP / mean GFP of wild type, printed, no background subtraction.

Data set [3] relates to T3, dCas12j-8 WT D369A;E567A;D658A (bacteriophage (metagenome)).
T3 sequence: T1 sequence with R523D
The conditions noted are these: HEK293T cells; panel 1c (compare within a panel only); scale: mean GFP / mean GFP of wild type, printed, no background subtraction.

For data set [4], the system named is T4, dCas12j-8 D527R D527R;D369A;E567A;D658A (bacteriophage (metagenome)).
T4 sequence: T1 sequence with R523D, D527R
The conditions noted are these: HEK293T cells; panel 1c (compare within a panel only); scale: mean GFP / mean GFP of wild type, printed, no background subtraction.

Our source for the binding signal values is PMC12412624, “Engineered Cas12j‐8 is a Versatile Platform for Multiplexed Genome Modulation in Mammalian Cells”.

Substitutions are numbered along the chain they refer to.

As for “CUUUCAAGACUAAUAGAUUGCUCCUUACGAGGAGACACUCCCUAUCAGUGAUAGAG / TTNACTCCCTATCAGTGATAGAG / CTCTATCACTGATAGGGAGTNAA [TetO]”, the binding signal in data set [1] amounted to 1.32; in data set [2], 3.3; in data set [3] it was 1; in data set [4], 1.56.
